From patent US20180172683A1 (published 2018)
Ends that are not written are not given here. * marks the point of attachment. Ser‑Gly linker = flexible serine-glycine linker, six amino acids long; Biotin = O=C1N[C@H]2[C@H](CS[C@H]2CCCCC(=O)*)N1

B1: E2, radiolabeled in vitro translated construct used for the off-rate of Table 3 (peptide, not shown: small tags and cut ends)
peptide: MIETITIYKYKKAADHFSMSMGSK
modifications: also: 35S-labeled methionine, C-terminal extension: Ser-Gly linker and HA tag, or mRNA fusion
B2: Peptide D1 (synthetic, biotin-labeled) (peptide)
peptide: MIAISTIYNYKKAADHYAMTKGSK(Biotin)-NH2
modifications: N-terminus assumed
SMILES: CC[C@H](C)[C@H](NC(=O)[C@H](C)NC(=O)[C@@H](NC(=O)[C@@H](N)CCSC)[C@@H](C)CC)C(=O)N[C@@H](CO)C(=O)N[C@H](C(=O)N[C@H](C(=O)N[C@@H](Cc1ccc(O)cc1)C(=O)N[C@@H](CC(N)=O)C(=O)N[C@@H](Cc1ccc(O)cc1)C(=O)N[C@@H](CCCCN)C(=O)N[C@@H](CCCCN)C(=O)N[C@@H](C)C(=O)N[C@@H](C)C(=O)N[C@@H](CC(=O)O)C(=O)N[C@@H](Cc1c[nH]cn1)C(=O)N[C@@H](Cc1ccc(O)cc1)C(=O)N[C@@H](C)C(=O)N[C@@H](CCSC)C(=O)N[C@H](C(=O)N[C@@H](CCCCN)C(=O)NCC(=O)N[C@@H](CO)C(=O)N[C@@H](CCCCNC(=O)CCCC[C@@H]1SC[C@@H]2NC(=O)N[C@@H]21)C(N)=O)[C@@H](C)O)[C@@H](C)CC)[C@@H](C)O
notes: Solid phase Fmoc synthesis; Also the capture ligand of the forward assays for peptide ligands; also called D1 Pep; D1 Peptide
B3: E1, radiolabeled in vitro translated peptide with C-terminal serine-glycine linker and HA tag (peptide)
peptide: MIETITIYNYKKAADHFSMSM-{Ser‑Gly linker-HA tag}
modifications: also: 35S-labeled methionine
notes: not shown: flexible serine-glycine linker, six amino acids long; HA tag
B4: B-cell lymphoma extra-large protein (Bcl-xL), first 209 amino acids with N-terminal avitag (other)
chain: AGGLNDIFEAQKIEWHEGGMSQSNRELVVDFLSYKLSQKGYSWSQFSDVEENRTEAPEGTESEMETPSAINGNPSWHLADSPAVNGATGHSSSLDAREVIPMAAVKQALREAGDEFELRYRRAFSDLTSQLHITPGTAYQSFEQVVNELFRDGVNWGRIVAFFSFGGALCVESVDKEMQVLVSRIAAWMATYLNDHLEPWIQENGGWDTFVELYGNNAAAESRKGQER
modifications: biotin on the avitag (BirA biotin ligase); a non-biotinylated form was used as the excess competitor in solution in the off-rate assays
notes: range 1-209; Expressed in E. coli BL21(DE3); Used in solution (forward assays) or immobilized through biotin on streptavidin plates or beads (reverse assay, off-rate and HTSK experiments); not shown: His tag implied (pET24a NdeI/XhoI, Ni-NTA purification, anti-HIS probe)
B5: Peptide E2 (synthetic, biotin-labeled) (peptide)
peptide: MIETITIYKYKKAADHFSMSMGSK(Biotin)-NH2
modifications: N-terminus assumed
SMILES: CC[C@H](C)[C@H](NC(=O)[C@@H](NC(=O)[C@@H](NC(=O)[C@@H](NC(=O)[C@H](CCC(=O)O)NC(=O)[C@@H](NC(=O)[C@@H](N)CCSC)[C@@H](C)CC)[C@@H](C)O)[C@@H](C)CC)[C@@H](C)O)C(=O)N[C@@H](Cc1ccc(O)cc1)C(=O)N[C@@H](CCCCN)C(=O)N[C@@H](Cc1ccc(O)cc1)C(=O)N[C@@H](CCCCN)C(=O)N[C@@H](CCCCN)C(=O)N[C@@H](C)C(=O)N[C@@H](C)C(=O)N[C@@H](CC(=O)O)C(=O)N[C@@H](Cc1c[nH]cn1)C(=O)N[C@@H](Cc1ccccc1)C(=O)N[C@@H](CO)C(=O)N[C@@H](CCSC)C(=O)N[C@@H](CO)C(=O)N[C@@H](CCSC)C(=O)NCC(=O)N[C@@H](CO)C(=O)N[C@@H](CCCCNC(=O)CCCC[C@@H]1SC[C@@H]2NC(=O)N[C@@H]21)C(N)=O
notes: Solid phase Fmoc synthesis; also called E2 Pep
B6: Peptide E1 (synthetic, biotin-labeled) (peptide)
peptide: MIETITIYNYKKAADHFSMSMGSK(Biotin)-NH2
modifications: N-terminus assumed
SMILES: CC[C@H](C)[C@H](NC(=O)[C@@H](NC(=O)[C@@H](NC(=O)[C@@H](NC(=O)[C@H](CCC(=O)O)NC(=O)[C@@H](NC(=O)[C@@H](N)CCSC)[C@@H](C)CC)[C@@H](C)O)[C@@H](C)CC)[C@@H](C)O)C(=O)N[C@@H](Cc1ccc(O)cc1)C(=O)N[C@@H](CC(N)=O)C(=O)N[C@@H](Cc1ccc(O)cc1)C(=O)N[C@@H](CCCCN)C(=O)N[C@@H](CCCCN)C(=O)N[C@@H](C)C(=O)N[C@@H](C)C(=O)N[C@@H](CC(=O)O)C(=O)N[C@@H](Cc1c[nH]cn1)C(=O)N[C@@H](Cc1ccccc1)C(=O)N[C@@H](CO)C(=O)N[C@@H](CCSC)C(=O)N[C@@H](CO)C(=O)N[C@@H](CCSC)C(=O)NCC(=O)N[C@@H](CO)C(=O)N[C@@H](CCCCNC(=O)CCCC[C@@H]1SC[C@@H]2NC(=O)N[C@@H]21)C(N)=O
notes: Solid phase Fmoc synthesis; also called E1 Pep
B7: D1, radiolabeled in vitro translated peptide with C-terminal serine-glycine linker and HA tag (peptide)
peptide: MIAISTIYNYKKAADHYAMTK-{Ser‑Gly linker-HA tag}
modifications: also: 35S-labeled methionine
notes: as for B3

How the values were obtained:
[1] = target: B4; assay: dissociation of radiolabeled construct from immobilized Bcl-xL with excess Bcl-xL in solution
Experimental: (§1) The radiolabeled peptides were allowed to bind to 30 pmol immobilized Bcl-xL for 1 hour in sample buffer (1×PBS, 1% (w/v) BSA, 0.1% (v/v) Tween 20, 10 μM biotin). The beads were magnetically separated, and washed 5× with sample buffer. The beads were resuspended in 1 mL of sample buffer containing 3 μM non-biotinylated Bcl-xL (˜100× molar excess relative to immobilized biotinylated Bcl-xL). At various time points, 100 μL of slurry was removed and the beads were magnetically separated and washed. The percent remaining at each time point was determined by dividing the counts per minute (cpm) on beads by total cpm (beads+washes). The peptide off-rate was determined by an exponential fit of the Percent counts on beads vs. Time (s).
(§2) The Kd for the peptides is measured by the equilibrium ELISA/AAMP assays (Table 1). The off-rate for these peptides was obtained by measuring the dissociation rate for radiolabeled peptide-mRNA fusions bound to immobilized Bcl-xL. The on-rate was calculated based on the equilibrium Kd measurements and the radiolabeled off-rate.

[2] = target: B4; assay: calculated from the equilibrium Kd and the radiolabeled off-rate
Experimental: as §2

[3] = target: B4; assay: binding (equilibrium ELISA) Kd
Experimental: ELISA Assays. […] Plates were washed 3× with wash buffer (1×PBS+0.1% (v/v) Tween-20) and blocked with 1×PBS+5% (w/v) BSA for two hours. […] After the capture ligand incubation, 100 μL of sample or standards were added in each well, and incubated for 1 hour at room temperature. Plates were washed, incubated with HRP-conjugated probe antibody (such as anti-HIS tag antibody) in sample buffer for 1 hour, washed, and incubated with TMB substrate (Thermo Scientific). Reactions were stopped after approximately 10 minutes with 2 M sulfuric acid, and the absorbance at 450 nm was measured via a plate reader (Molecular Devices). The ligand of interest, capture ligand, target protein, and probe ligand used in example ELISA assays performed are highlighted in the table below.
Enzymatic Kd Calculation Assay. The Kd values of ligands of interest were determined using a protocol modified from Friguet et al., Journal of immunological methods, 77, 305-319 (1985). The samples were prepared and analyzed by ELISA assay in a similar process as described above. The OD450 for the standards and their concentration values were fit to a four parameter logistic curve (standard curve). The concentration of the free Bcl-xL in solution (responsible for the signal) for each sample was calculated using the standard curve, and converted into percent of Bcl-xL bound by ligand in solution. […]

[4] = target: B4; assay: equilibrium ELISA/AMMP (value of Table 1 given again)
[5] = target: B4; assay: equilibrium ELISA and AMMP, monovalent model, known [L]0
[6] = target: B4; assay: equilibrium ELISA, monovalent model
Experimental: (§3) After the capture ligand incubation, 100 μL of sample or standards were added in each well, and incubated for 1 hour at room temperature. Plates were washed, incubated with HRP-conjugated probe antibody (such as anti-HIS tag antibody) in sample buffer for 1 hour, washed, and incubated with TMB substrate (Thermo Scientific). Reactions were stopped after approximately 10 minutes with 2 M sulfuric acid, and the absorbance at 450 nm was measured via a plate reader (Molecular Devices). The ligand of interest, capture ligand, target protein, and probe ligand used in example ELISA assays performed are highlighted in the table below.
(§4) Enzymatic Kd Calculation Assay. The Kd values of ligands of interest were determined using a protocol modified from Friguet et al., Journal of immunological methods, 77, 305-319 (1985). The samples were prepared and analyzed by ELISA assay in a similar process as described above. The OD450 for the standards and their concentration values were fit to a four parameter logistic curve (standard curve). The concentration of the free Bcl-xL in solution (responsible for the signal) for each sample was calculated using the standard curve, and converted into percent of Bcl-xL bound by ligand in solution. For each ligand, the values for all the tested concentration of Bcl-xL and peptide in solution were fit simultaneously to the monovalent equilibrium model below to obtain the dissociation constant Kd (in which [C]EQ, [T]₀, [L]₀ represent the concentration of the target-ligand complex at equilibrium, the initial concentration of the target protein, and the initial concentration of the ligand, respectively).
(§5) The equilibrium assay is a modified version of the method described by Friguet et al., supra. The samples were prepared and analyzed by ELISA assay in a similar process as described above.

[7] = target: B4; assay: equilibrium AMMP, monovalent model
Experimental: (§6) AMMP Assays. For the AMMP assays, 90 μL of each sample or standards was incubated with 30 μL of magnetic beads (12 μg of beads/mL) and fluorescein-labeled antibody (8 nM) in sample buffer for 1 hour. The experiment's run buffer was 1×PBS+1% (v/v) Tween-20+1% (v/v) heat-treated FBS (Invitrogen; FBS was heat treated for 15 minutes at 65° C. and filtered). BioScale Universal Detection Cartridges were used in performing all of the assays. The device was used per the manufacturer's instructions. The ligand of interest, capture ligand, target protein, and probe ligand used in example AMMP assays performed are highlighted in the table below.
(§7) A competing ligand of unknown Kd was incubated with the target and allowed to equilibrate. The target protein bound to the competing ligand is not anchored to the magnetic beads. Subsequent wash steps thereby […]. The Kd of interaction between the target protein and the competing ligand can then be determined by quantifying the amount of free target in solution.

[8] = target: B4; assay: equilibrium ELISA and AMMP, monovalent model, Kd and [L]0 fit simultaneously
[9] = target: B4; assay: radiolabeled HA-tagged peptide off-rate from immobilized Bcl-xL
Experimental: as §1
The peptide ligands were made using a C-terminal HA tag, and affinity purified.

[10] = target: T1, Bim peptide (synthetic 26-residue fragment of Bim, biotin-labeled) (C-terminal amide; biotin on the side chain of the C-terminal Lys); assay: equilibrium ELISA, monovalent model
T1 sequence (peptide, as listed by the source): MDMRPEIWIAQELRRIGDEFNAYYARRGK
Experimental: as §3, §4, §5

[11] = target: T1, Bim peptide (synthetic 26-residue …); assay: equilibrium AMMP, monovalent model
Experimental: as §6, §7

[12] = target: T1, Bim peptide (synthetic 26-residue …); assay: equilibrium ELISA and AMMP, monovalent model, Kd and [L]0 fit simultaneously

| Binder | koff [1] [s⁻¹] | kon [2] [M⁻¹ s⁻¹] | Kd [4] [nM] | Kd [5] [nM] | Kd [6] [nM] | Kd [7] [nM] | Kd [8] [nM] | further results |
| --- | --- | --- | --- | --- | --- | --- | --- | --- |
| B1 | 1.6e-05 |  |  |  |  |  |  |  |
| B2 |  | 240000 | 0.0085 | 0.0085 | 0.007 | 0.012 | 0.014 | Kd [3]: 0.009 nM |
| B3 | 1.2e-05 |  |  |  |  |  |  | koff [9]: 7.4e-06 s⁻¹ |
| B4 |  |  |  |  |  |  |  | Kd [10]: 0.17 nM; Kd [11]: 0.077 nM; Kd [12]: 0.15 nM |
| B5 |  | 53000 | 0.3 | 0.3 | 0.29 | 0.315 | 0.24 |  |
| B6 |  | 310000 | 0.039 | 0.039 | 0.034 | 0.045 | 0.027 | Kd [3]: 0.039 nM |
| B7 | 2e-06 |  |  |  |  |  |  | koff [9]: 2e-06 s⁻¹ |
